Experimental data as given in patent US11814447B2, “Peptide ligands for binding to EphA2” (BICYCLERD LIMITED, priority 2018, dated 2023).
Starred links: 1 amine or outer side, 2 acyl side, 3 side chain; linkers in the order of their positions; H or OH if unused. Positions of bridges follow the written chain, without caps; N, C: chain ends. No end group written: not given here. TATA = O=C(CC[*:1])N1CN(C(=O)CC[*:2])CN(C(=O)CC[*:3])C1

B1: Bicycle Compound Number 69 (TATA scaffold), Ac-A(HArg)DCPLVNPLCLHPGWTCA-Sar6-(D-K) (peptide)
peptide: AXDCPLVNPLCLHPGWTCAXXXXXXK
modifications: N-terminal acetyl; X2 = HArg (homoarginine); X at 20-25 = Sar; K26 = D-Lys; 3 Cys thioether-linked to TATA scaffold

Target: T1, Human EphA2 (Ecto) (Human, UniProt P29317 24-537)
T1 construct: extracellular domain; in-house)
T1 sequence (P29317 24-537): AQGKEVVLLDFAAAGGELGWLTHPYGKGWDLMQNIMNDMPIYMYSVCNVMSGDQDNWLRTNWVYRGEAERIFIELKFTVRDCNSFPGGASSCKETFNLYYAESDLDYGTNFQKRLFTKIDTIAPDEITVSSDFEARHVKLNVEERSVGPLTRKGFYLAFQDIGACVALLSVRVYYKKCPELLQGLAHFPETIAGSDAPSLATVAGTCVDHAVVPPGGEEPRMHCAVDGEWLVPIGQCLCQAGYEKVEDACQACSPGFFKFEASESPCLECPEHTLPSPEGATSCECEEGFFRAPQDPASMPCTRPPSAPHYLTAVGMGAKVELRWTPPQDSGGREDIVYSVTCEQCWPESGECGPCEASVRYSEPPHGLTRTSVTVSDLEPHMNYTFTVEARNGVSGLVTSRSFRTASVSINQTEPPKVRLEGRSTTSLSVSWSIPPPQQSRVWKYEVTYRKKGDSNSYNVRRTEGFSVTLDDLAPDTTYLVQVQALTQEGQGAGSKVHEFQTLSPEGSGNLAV
Assay: FP competition; tracer Reference Compound C
Method: Peptides without a fluorescent tag were tested in competition with a peptide with a fluorescent tag and a known Kd (Table 2). Peptides were diluted to an appropriate concentration in assay buffer as described in the direct binding assay with a maximum of 5% DMSO, then serially diluted 1 in 2. […] Measurements were conducted as for the direct binding assay, however the gain was determined prior to the first measurement. Data analysis was in Systat Sigmaplot version 12.0 where the mP values were fit to a user defined cubic equation to generate a Ki value: […]

| Binder | Ki [µM] |
| --- | --- |
| ETVCLPDSRCAYMNVCA (linker 4-10-16 via TATA) [Bicycle Compound Number 23 (TATA scaffold), ETVCLPDSRCAYMNVCA] | 0.13 |
| ACVPDRRCAFENVCVDH (linker 2-8-14 via TATA) [Bicycle Compound Number 25 (TATA scaffold), ACVPDRRCAFENVCVDH] | 0.0973 |
| ACSSCWAYPDSVCA (linker 2-5-13 via TATA) [Bicycle Compound Number 38 (TATA scaffold), ACSSCWAYPDSVCA] | 0.4 |
| ACPLVNPLCMIGNWTCA (linker 2-9-16 via TATA (inferred)) [Bicycle Compound Number 60 (TATA scaffold), ACPLVNPLCMIGNWTCA] | 0.0962 |
| ACGFMGLEPCVTYCA (linker 2-10-14 via TATA) [Bicycle Compound Number 43 (TATA scaffold), ACGFMGLEPCVTYCA] | 0.234 |
| ACGFMGLEPCELFCMPK (linker 2-10-14 via TATA (inferred)) [Bicycle Compound Number 47 (TATA scaffold), ACGFMGLEPCELFCMPK] | 0.185 |
| ACPDWGKYCAYPDTICA (linker 2-9-16 via TATA) [Bicycle Compound Number 36 (TATA scaffold), ACPDWGKYCAYPDTICA] | 0.16 |
| ACGFMGLEPCELFCA (linker 2-10-14 via TATA (inferred)) [Bicycle Compound Number 46 (TATA scaffold), ACGFMGLEPCELFCA] | 0.0817 |
| ACGFMGLEPCEMVCA (linker 2-10-14 via TATA) [Bicycle Compound Number 42 (TATA scaffold), ACGFMGLEPCEMVCA] | 0.321 |
| ACGFMGLEPCELVCA (linker 2-10-14 via TATA) [Bicycle Compound Number 44 (TATA scaffold), ACGFMGLEPCELVCA] | 0.127 |
| ACGFMGLEPCEMYCA (linker 2-10-14 via TATA (inferred)) [Bicycle Compound Number 50 (TATA scaffold), ACGFMGLEPCEMYCA] | 0.14 |
| ACGFMGLEPCETFCA (linker 2-10-14 via TATA) [Bicycle Compound Number 40 (TATA scaffold), ACGFMGLEPCETFCA] | 0.188 |
| ACRNWGMYCAYPDTICA (linker 2-9-16 via TATA) [Bicycle Compound Number 35 (TATA scaffold), ACRNWGMYCAYPDTICA] | 0.283 |
| ACPLVNPLCLHPGWTCA (linker 2-9-16 via TATA (inferred)) [Bicycle Compound Number 64 (TATA scaffold), ACPLVNPLCLHPGWTCA] | 0.03 |
| ACPLVNPLCLEPGWTCA (linker 2-9-16 via TATA) [Bicycle Compound Number 84 (TATA scaffold), ACPLVNPLCLEPGWTCA] | 0.0539 |
| ACPMVNPLCLHPGWTCA (linker 2-9-16 via TATA) [Bicycle Compound Number 97 (TATA scaffold), ACPMVNPLCLHPGWTCA] | 0.02 |
| ACPLVNPLCLVPGWSCA (linker 2-9-16 via TATA (inferred)) [Bicycle Compound Number 57 (TATA scaffold), ACPLVNPLCLVPGWSCA] | 0.0354 |
| ACPLVNPLCLHPGWSCA (linker 2-9-16 via TATA) [Bicycle Compound Number 86 (TATA scaffold), ACPLVNPLCLHPGWSCA] | 0.0561 |
| ACPMVNPLCLHPGWICA (linker 2-9-16 via TATA (inferred)) [Bicycle Compound Number 53 (TATA scaffold), ACPMVNPLCLHPGWICA] | 0.0154 |
| ACPLVNPLCLHPGWRCA (linker 2-9-16 via TATA (inferred)) [Bicycle Compound Number 55 (TATA scaffold), ACPLVNPLCLHPGWRCA] | 0.0206 |
| ACPLVNPLCLHPGWICA (linker 2-9-16 via TATA (inferred)) [Bicycle Compound Number 54 (TATA scaffold), ACPLVNPLCLHPGWICA] | 0.0152 |

| Binder | Ki [µM] |
| --- | --- |
| ACPLVNPLCLAPGWTCA (linker 2-9-16 via TATA) [Bicycle Compound Number 82 (TATA scaffold), ACPLVNPLCLAPGWTCA] | 0.0462 |
| ACTKPTGFCAYPDTICA (linker 2-9-16 via TATA) [Bicycle Compound Number 33 (TATA scaffold), ACTKPTGFCAYPDTICA] | 0.269 |
| ACPLVNPLCLMTGWSCA (linker 2-9-16 via TATA (inferred)) [Bicycle Compound Number 61 (TATA scaffold), ACPLVNPLCLMTGWSCA] | 0.241 |
| ACRGEWGYCAYPDTICA (linker 2-9-16 via TATA) [Bicycle Compound Number 34 (TATA scaffold), ACRGEWGYCAYPDTICA] | 0.348 |
| RPACPLVNPLCLHPGWTCA (linker 4-11-18 via TATA) [Bicycle Compound Number 70 (TATA scaffold), RPACPLVNPLCLHPGWTCA] | 0.0101 |
| RPPCPLVNPLCLHPGWTCA (linker 4-11-18 via TATA) [Bicycle Compound Number 71 (TATA scaffold), RPPCPLVNPLCLHPGWTCA] | 0.0111 |
| ACGFMGLVPCNVFCA (linker 2-10-14 via TATA (inferred)) [Bicycle Compound Number 45 (TATA scaffold), ACGFMGLVPCNVFCA] | 0.142 |
| ACGFMGLVPCEVHCA (linker 2-10-14 via TATA) [Bicycle Compound Number 41 (TATA scaffold), ACGFMGLVPCEVHCA] | 0.155 |
| ACPLVNPLCLYGSWKCA (linker 2-9-16 via TATA (inferred)) [Bicycle Compound Number 63 (TATA scaffold), ACPLVNPLCLYGSWKCA] | 0.059 |
| ACPLVNPLCLMPGWGCA (linker 2-9-16 via TATA (inferred)) [Bicycle Compound Number 59 (TATA scaffold), ACPLVNPLCLMPGWGCA] | 0.115 |
| B1 | 0.0175 |
| ACQSCWAYPDTYCA (linker 2-5-13 via TATA) [Bicycle Compound Number 39 (TATA scaffold), ACQSCWAYPDTYCA] | 0.321 |
| ACGFMGLEPCELYCAHT (linker 2-10-14 via TATA (inferred)) [Bicycle Compound Number 49 (TATA scaffold), ACGFMGLEPCELYCAHT] | 0.144 |
| ACGFMGLVPCELYCADN (linker 2-10-14 via TATA (inferred)) [Bicycle Compound Number 51 (TATA scaffold), ACGFMGLVPCELYCADN] | 0.0844 |
| ACVPDRRCAFRDVCLTG (linker 2-8-14 via TATA) [Bicycle Compound Number 28 (TATA scaffold), ACVPDRRCAFRDVCLTG] | 1.7 |
| ACPLVNPLCNLPGWTCA (linker 2-9-16 via TATA (inferred)) [Bicycle Compound Number 56 (TATA scaffold), ACPLVNPLCNLPGWTCA] | 0.184 |
| ACPLVNPLCLTSGWKCA (linker 2-9-16 via TATA (inferred)) [Bicycle Compound Number 52 (TATA scaffold), ACPLVNPLCLTSGWKCA] | 0.115 |
| ACPLVNPLCLLDGWTCA (linker 2-9-16 via TATA (inferred)) [Bicycle Compound Number 58 (TATA scaffold), ACPLVNPLCLLDGWTCA] | 0.0384 |
| ACPLVNPLCMMGGWKCA (linker 2-9-16 via TATA (inferred)) [Bicycle Compound Number 62 (TATA scaffold), ACPLVNPLCMMGGWKCA] | 0.0671 |
| ACVPDRRCAFQDVCDHE (linker 2-8-14 via TATA) [Bicycle Compound Number 27 (TATA scaffold), ACVPDRRCAFQDVCDHE] | 0.159 |
